According to US20250161357A1, “HUMAN T CELL RECEPTOR PAIRS REACTIVE WITH HLA-A*02:01 RESTRICTED HUMAN PROSTATIC ACID PHOSPHATASE (PAP) EPITOPES” (The Regents of the University of California, priority 2022, published 2025):

What was measured:
HLA-A*02:01 [1] = molecular target: HLA-A*02:01 (Homo sapiens, UniProt P04439, D140Y/D185E/D98H/E176V/E277Q/G131W/G231S/I119V/I121R/I166T/I218V/L300P/L318F/N151K/N90K/P208A/P217A/Q86G/Q94H/R138H/R169H/T345S); assay: T2 peptide binding (stabilization) assay; format: cell-based; conditions: peptides exogenously pulsed on T2 cells; anti-HLA-A2 FITC (BB7.2), FACS
HLA-A*02:01 [2] = molecular target: T1, HLA-A*02:01 (Homo sapiens, UniProt P04439, D140Y/D185E/D98H/E176V/E277Q/G131W/G231S/I119V/I121R/I166T/I218V/L300P/L318F/N151K/N90K/P208A/P217A/Q86G/Q94H/R138H/R169H/T345S/Y108C); assay: Secreted single-chain trimer (SCT) quantification assay
T1 construct: made in house
Description: Peptide-MHC I complexes processed by endogenous machinery might show different stability compared to exogenous peptide pulsing (such as in T2 binding assays). This can be the result of post-translational modifications (PTMs). A recently developed technique, secreted single-chain trimer (SCT), was used to evaluate relative stability of pMHC of interest (36). In the secreted SCT construct, MHC I heavy chain (HLA-A*02:01 alpha chain with H74L and Y84C mutation), light chain (beta-microglobulin), and corresponding peptide were tethered by linkers as one single chain molecule (FIG. 3a). Constructs were expressed in cells and released into culture supernatant. Only peptides favored by HLA-A*02:01 are expected to generate a stable SCT and have higher yields. The quantity of SCTs was measured by band intensity on SDS-PAGE and normalized against a well-known WT1 cancer epitope that is restricted on HLA-A*02:01 ([…]) (FIG. 3b) (37, 38).
SCT quantification assay: SCT constructs (mutant H74L/Y84C) with individual PAP peptides were synthesized according to the previously published protocol (36).

[3] = men with metastatic castration-resistant prostate cancer; cited from earlier work
PAP = molecular target: T2, PAP (Homo sapiens, UniProt P15309); conditions: positive response SI>5 at week 6 post immunization; cited from earlier work
T2 sequence (P15309 33-386): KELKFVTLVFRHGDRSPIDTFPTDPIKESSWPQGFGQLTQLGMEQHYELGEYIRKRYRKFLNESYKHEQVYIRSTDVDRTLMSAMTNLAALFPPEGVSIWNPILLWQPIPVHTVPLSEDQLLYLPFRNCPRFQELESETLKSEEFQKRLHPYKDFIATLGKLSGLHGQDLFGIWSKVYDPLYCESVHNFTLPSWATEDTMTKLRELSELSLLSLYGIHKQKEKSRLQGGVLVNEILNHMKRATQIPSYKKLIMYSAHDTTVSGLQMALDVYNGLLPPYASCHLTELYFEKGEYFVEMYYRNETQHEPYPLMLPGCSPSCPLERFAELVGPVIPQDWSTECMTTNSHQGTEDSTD

PAP+ target cells = conditions: video evidence; cited from earlier work
HLA-A*02:01 on T2 cells [4] = molecular target: T3, HLA-A*02:01 on T2 cells (human); assay: T2 stabilization assay, HLA-A2 on T2 cells by anti-A2 (BB7.2) FITC flow cytometry
T3 construct: also called HLA-A2; A2

[5] = molecular target: T4, prostatic acid phosphatase (PAP); peptide PAP_A2_14 peptide on HLA-A*02:01 (human); assay: multimer staining
T4 peptide: ILLWQPIPV

[6] = molecular target: T5, prostatic acid phosphatase (PAP); peptide PAP_A2_21 peptide on HLA-A*02:01 (human); assay: activation reporter or marker
T5 peptide: LLLARAASLSL

HLA-A*02:01 on T2 cells [7] = molecular target: T3, HLA-A*02:01 on T2 cells; assay: T2 binding assay, HLA-A2 on T2 cells by anti-A2 (BB7.2) FITC flow cytometry
[8] = molecular target: T6, prostatic acid phosphatase (PAP); peptide PAP_A2_25 peptide on HLA-A*02:01 (human); assay: cytokine release
T6 peptide: IMYSAHDTTV

IMYSAHDTTV (listed as Homo sapiens) [PAP-A2-25]
HLA-A2 signal in T2 assay (slope of natural log of A2 fluorescent intensity vs diluted peptide concentration) (HLA-A*02:01 [1]): Positive

SVHNFTLPSW (listed as Homo sapiens) [PAP-A2-24]
affinity toward HLA-A*02:01 after glycosylation (HLA-A*02:01 [2]; N-glycosylated peptide in SCT): altered affinity
SCT yield normalized to control WT1 epitope (RMFPNAPYL) (HLA-A*02:01 [2]; band intensity on SDS-PAGE, cutoff 0.2 for relatively high stability): 1.40

sipuleucel-T
median improvement in overall survival [3]: 4.1 months
patients displaying T cell proliferation responses to PAP (PAP): 27.2%
lysis of PAP+ target cells by T cells from treated patients (PAP+ target cells): capable of lysing

KVYDPLYCESV (listed as Homo sapiens) [PAP-A2-20]
HLA-A2 signal in T2 assay (slope of natural log of A2 fluorescent intensity vs diluted peptide concentration) (HLA-A*02:01 [1]): Positive

ILLWQPIPV (listed as Homo sapiens) [PAP-A2-14]
HLA-A2 signal in T2 assay (slope of natural log of A2 fluorescent intensity vs diluted peptide concentration) (HLA-A*02:01 [1]): Positive

LLLARAASLSL (listed as Homo sapiens) [PAP-A2-21]
HLA-A2 signal in T2 assay (slope of natural log of A2 fluorescent intensity vs diluted peptide concentration) (HLA-A*02:01 [1]): Positive

LLLARAASLSL (also called PAP-21) [PAP-A2-21 peptide LLLARAASLSL]
binding result (HLA-A*02:01 on T2 cells [4]): binds

B1: PAP-TCR-204 (TCR, V domains shown)
Valpha: AQSVTQPDIHITVSEGASLELRCNYSYGATPYLFWYVQSPGQGLQLLLKYFSGDTLVQGIKGFEAEFKRSQSSFNLRKPSVHWSDAAEYFCAVGAGDYKLSFGAGTTVTVRA
Vbeta: ETGVTQTPRHLVMGMTNKKSLKCEQHLGHNAMYWYKQSAKKPLELMFVYSLEERVENNSVPSRFSPECPNSSHLFLHLHTLQPEDSALYLCASSQTTGQPQHFGDGTRLSIL
binding result [5]: recognises

B2: PAP-TCR-225 (TCR, V domains shown)
Valpha: DQQVKQNSPSLSVQEGRISILNCDYTNSMFDYFLWYKKYPAEGPTFLISISSIKDKNEDGRFTVFLNKSAKHLSLHIVPSQPGDSAVYFCAASVDEKLTFGTGTRLTIIP
Vbeta: DTGVSQNPRHKITKRGQNVTFRCDPISEHNRLYWYRQTLGQGPEFLTYFQNEAQLEKSRLLSDRFSAERPKGSFSTLEIQRTEQGDSAMYLCASSLQVEQFFGPGTRLTVL
binding result [6]: recognises

TLMSAMTNL [PAP-A2-22 peptide TLMSAMTNL]
binding result (HLA-A*02:01 on T2 cells [7]): binds

B3: PAP-TCR-175 (TCR, V domains shown)
Valpha: ILNVEQSPQSLHVQEGDSTNFTCSFPSSNFYALHWYRWETAKSPEALFVMTLNGDEKKKGRISATLNTKEGYSYLYIKGSQPEDSATYLCAFEDSGYSTLTFGKGTMLLVSP
Vbeta: DAGITQSPRYKITETGRQVTLMCHQTWSHSYMFWYRQDLGHGLRLIYYSAAADITDKGEVPDGYVVSRSKTENFPLTLESATRSQTSVYFCASGGLAGVDEQYFGPGTRLTVT
binding result [6]: recognises

B4: PAP-TCR-213 (TCR, V domains shown)
Valpha: TQLLEQSPQFLSIQEGENLTVYCNSSSVFSSLQWYRQEPGEGPVLLVTVVTGGEVKKLKRLTFQFGDARKDSSLHITAAQPGDTGLYLCAGAPETSGSRLTFGEGTQLTVNP
Vbeta: GAGVSQTPSNKVTEKGKYVELRCDPISGHTALYWYRQSLGQGPEFLIYFQGTGAADDSGLPNDRFFAVRPEGSVSTLKIQRTERGDSAVYLCASSFGGGSSPLHFGNGTRLTVT
binding result [8]: recognises

KVYDPLYCESV [PAP-A2-20 peptide KVYDPLYCESV]
binding result (HLA-A*02:01 on T2 cells [4]): binds
